Publication doi:10.1101/2022.08.17.504309

Target: C-type lectin domain of CD62P (P-selectin), residues 1-117, wild type (UniProt P16109)
Assay: ELISA

Sequence of UniProt P16109 (P16109 42-158): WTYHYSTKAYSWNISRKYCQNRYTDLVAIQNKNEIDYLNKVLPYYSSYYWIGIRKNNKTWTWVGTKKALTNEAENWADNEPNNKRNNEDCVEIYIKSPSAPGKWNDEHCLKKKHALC

fold binding against the combined lectin and EGF-like domains | Substance
2 fold | soluble integrin αvβ3 (from UniProt P06756;P05106) (complex)
2 fold | soluble recombinant integrin αIIbβ3 (from UniProt P08514;P05106) (complex)
